Reference: article PMC2952845
Read-outs that look alike come from different tables or passages of the source.

Key:
Assay in all cases: EMSA
[1] = target: T1, Runx1 Runt domain (CBF alpha2);CBFbeta (human?;human?, UniProt Q01196;Q13951 50-183;2-135, |)
[2] = target: T1, Runx1 Runt domain (CBF alpha2);CBFbeta; remark: listed apart in the source
[3] = target: T1, Runx1 Runt domain (CBF alpha2);CBFbeta; remark: listed apart in the source
[4] = target: T1, Runx1 Runt domain (CBF alpha2);CBFbeta; remark: listed apart in the source

T1 sequence (Q01196 50-183, chain 1 of 2): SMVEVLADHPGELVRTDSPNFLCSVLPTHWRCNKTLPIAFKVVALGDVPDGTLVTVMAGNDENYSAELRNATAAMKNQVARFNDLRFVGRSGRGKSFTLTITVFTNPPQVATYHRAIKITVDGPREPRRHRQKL
T1 sequence (Q13951 2-135, chain 2 of 2): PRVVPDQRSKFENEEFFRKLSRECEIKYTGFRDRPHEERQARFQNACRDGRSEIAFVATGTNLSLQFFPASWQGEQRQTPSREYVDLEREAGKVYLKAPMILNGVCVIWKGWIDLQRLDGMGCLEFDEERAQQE

B1: WT GM450 (dsDNA)
DNA 1: AGATGTGTGGCTGCCCACAAAC
DNA 2: AGGTTTGTGGGCAGCCACACAT
B1: binds [1].

B2: GM450Δ443 (dsDNA)
DNA 1: AGATCTCTCACTGCCCACAAAC
DNA 2: AGGTTTGTGGGCAGTGAGAGAT
B2: binds [2].

B3: GM450Δ452 (dsDNA)
DNA 1: AGATGTGTGGCTGCGTAGAAAC
DNA 2: AGGTTTCTACGCAGCCACACAT
B3: binds [2].

B4: GM450Δ443/452 (dsDNA)
DNA 1: AGATCTCTCACTGCGTAGAAAC
DNA 2: AGGTTTCTACGCAGTGAGAGAT
B4: no binding [3].

B5: Crystal palindrome (dsDNA)
DNA 1: AGATGTGCGGTCGACCGCAAAC
DNA 2: AGGTTTGCGGTCGACCGCACAT
B5: binds [4].
